Measured values taken from article doi:10.1101/2021.12.16.472929 (bioRxiv, 2021).
Like-named read-outs stand apart in the source and are kept apart here.

How the values were obtained:
SEC = biological target: the molecule itself; test: SEC
SEC-SAXS [1] = biological target: the molecule itself; test: SEC-SAXS
SEC-SAXS [2] = biological target: the molecule itself; test: SEC-SAXS; remark: listed apart in the source

B1: FLhArc, full-length human Arc (capsid / high-molecular-weight forms) (natural protein)
chain: MELDHRTSGGLHAYPGPRGGQVAKPNVILQIGKCRAEMLEHVRRTHRHLLAEVSKQVERELKGLHRSVGKLESNLDGYVPTSDSQRWKKSIKACLCRCQETIANLERWVKREMHVWREVFYRLERWADRLESTGGKYPVGSESARHTVSVGVGGPESYCHEADGYDYTVSPYAITPPPAAGELPGQEPAEAQQYQPWVPGEDGQPSPGVDTQIFEDPREFLSHLEEYLRQVGGSEEYWLSQIQNHMNGPAKKWWEFKQGSVKNWVEFKKEFLQYSEGTLSREAIQRELDLPQKQGEPLDQFLWRKRDLYQTLYVDADEEEIIQYVVGTLQPKLKRFLRHPLPKTLEQLIQRGMEVQDDLEQAAEPAGPHLPVEDEAETLTPAPNSESVASDRTQPE
Question: Does B1 bind (SEC)?
Answer: binds

B2: MBP-2rNT, N-terminal domain of rat Arc (residues 24-137) with the poly-Ala mutation, His6-MBP fusion (domain or fragment)
chain: KPNVILQIGKCRAEMLEHVRRTHRHLLTEVSKQVERELKGLHRSVGKLENNLDGYVPTGDSQRWKKSIKACLCRCQETIANLERWVKREAAAAAAAFYRLERWADRLESMGGKY
Question: How did the “stoichiometry N” value (SEC-SAXS [1]) turn out when B2 was run?
Answer: 2

B3: FLrArc-7A, full-length rat Arc with a poly-Ala mutation of residues 113-119 (natural protein)
chain: MELDHMTTGGLHAYPAPRGGPAAKPNVILQIGKCRAEMLEHVRRTHRHLLTEVSKQVERELKGLHRSVGKLENNLDGYVPTGDSQRWKKSIKACLCRCQETIANLERWVKREAAAAAAAFYRLERWADRLESMGGKYPVGSEPARHTVSVGVGGPEPYCQEADGYDYTVSPYAITPPPAAGELPEQESVGAQQYQSWVPGEDGQPSPGVDTQIFEDPREFLSHLEEYLRQVGGSEEYWLSQIQNHMNGPAKKWWEFKQGSVKNWVEFKKEFLQYSEGTLSREAIQRELDLPQKQGEPLDQFLWRKRDLYQTLYVDAEEEEIIQYVVGTLQPKFKRFLRHPLPKTLEQLIQRGMEVQDGLEQAAEPSVTPLPTEDETEALTPALTSESVASDRTQPE
Question: For B3, which “stoichiometry N” value (SEC-SAXS [2]) is on record?
Answer: 2
